Laboratory results reported in patent US20050256058A1.
Square brackets hold non-standard residues; d marks the D form. * marks the point of attachment. Hydrocinnamoyl = O=C(CCc1ccccc1)*; CH:CH‑COOEt = CCOC(=O)/C=C/*; AOrn = not defined here; Cbz = O=C(OCc1ccccc1)*

What was measured:
Assay in all cases: cell-based or functional assay
Clostripain, P09870 = molecular target: T1, Clostripain, P09870
T1 chain: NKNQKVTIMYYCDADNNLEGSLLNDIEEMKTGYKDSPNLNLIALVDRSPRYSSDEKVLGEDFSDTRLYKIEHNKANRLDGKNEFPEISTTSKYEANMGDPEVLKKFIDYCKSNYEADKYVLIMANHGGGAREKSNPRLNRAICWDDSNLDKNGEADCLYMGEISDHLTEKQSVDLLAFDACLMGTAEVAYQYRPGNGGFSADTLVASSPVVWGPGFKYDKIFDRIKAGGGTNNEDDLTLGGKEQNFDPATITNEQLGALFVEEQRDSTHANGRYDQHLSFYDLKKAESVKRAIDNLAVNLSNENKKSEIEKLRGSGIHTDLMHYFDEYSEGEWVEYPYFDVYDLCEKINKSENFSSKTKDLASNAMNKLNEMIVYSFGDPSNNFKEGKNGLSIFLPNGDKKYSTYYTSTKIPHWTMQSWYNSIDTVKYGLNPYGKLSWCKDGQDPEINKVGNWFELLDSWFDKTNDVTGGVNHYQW

Gingipain K = molecular target: Gingipain K
Gingipain R = molecular target: Gingipain R
[1] = molecular target: T2, schistosome legumain SmAE (Schistosoma mansoni asparaginyl endopeptidase) (Schistosoma mansoni), P09841
T2 chain: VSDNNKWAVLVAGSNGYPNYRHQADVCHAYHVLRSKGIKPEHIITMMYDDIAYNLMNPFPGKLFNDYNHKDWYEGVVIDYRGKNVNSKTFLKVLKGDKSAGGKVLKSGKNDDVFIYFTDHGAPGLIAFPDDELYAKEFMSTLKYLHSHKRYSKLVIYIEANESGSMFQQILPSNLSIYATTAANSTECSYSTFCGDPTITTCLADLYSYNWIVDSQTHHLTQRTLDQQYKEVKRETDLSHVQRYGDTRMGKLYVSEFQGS

| Binder | k2 (Clostripain, P09870) [M⁻¹ s⁻¹] | k2 (Gingipain K) [M⁻¹ s⁻¹] | k2 (Gingipain R) [M⁻¹ s⁻¹] | IC50 [1] [nM] |
| --- | --- | --- | --- | --- |
| Cbz-Ala-Ala-[AAsn]-{CH:CH‑CO‑indoline} [Cbz-Ala-Ala-AAsn-CH═CH-CO-indoline] | – | – | – | 70 |
| LK (modifications not checked) [PhPr-Leu-ALys-CH═CH-COOEt] | 40800 | 3.28e+06 | 289 | – |
| LK (modifications not checked) [PhPr-Leu-ALys-CH═CH-CON(Me)CH2Ph] | 6000 | 1.36e+06 | 79 | – |
| AAN (modifications not checked) [Cbz-Ala-Ala-AAsn-CH═CH-CO-(4-Ph-Py)] | – | – | – | 750 |
| LK (modifications not checked) [PhPr-Leu-ALys-CH═CH-CON(4H-quinoline)] | 326 | 252000 | 73 | – |
| LR (modifications not checked) [PhPr-Leu-AArg-CH═CH-COOEt] | 69600 | 1580 | – | – |
| Cbz-Ala-Ala-[AAsn]-{CH:CH‑CON(Bzl)2} [Cbz-Ala-Ala-AAsn-CH═CH-CON(Bzl)2] | – | – | – | 45 |
| Hydrocinnamoyl-Leu-[AOrn]-{CH:CH‑CON(CH2Ph)2} (reading uncertain) [PhPr-Leu-AOrn-CH═CH-CON(CH2Ph)2] | 541 | 61600 | 541 | – |
| AAN (modifications not checked) [Cbz-Ala-Ala-AAsn-CH═CH-3-Py] | – | – | – | > 2000 |
| AAN (modifications not checked) [Cbz-Ala-Ala-AAsn-CH═CH-CON(nBu)2] | – | – | – | 550 |
| Cbz-Ala-Ala-[AAsn]-{CH:CH‑COOEt} [Cbz-Ala-Ala-AAsn-CH═CH-COOEt] | – | – | – | 31 |
| Cbz-Ala-Ala-[AAsn]-{CH:CH‑CONHCH2CH2Ph} [Cbz-Ala-Ala-AAsn-CH═CH-CONHCH2CH2Ph] | – | – | – | 600 |
| AAN (modifications not checked) [Cbz-Ala-Ala-AAsn-CH═CH-CON(Bzl-4-OMe)Bzl] | – | – | – | 90 |
| LK (modifications not checked) [PhPr-Leu-ALys-CH═CH-CON(Me)CH2-1-naphthyl] | 639 | 975000 | 576 | – |
| Hydrocinnamoyl-Leu-[AOrn]-{CH:CH‑COOEt} (reading uncertain; also: printed as PhPr-Leu-AOrn-CH═CH-COOEt) [PhPr-Leu-AOrn-CH═CH-COOEt] | 788 | 927000 | 32 | – |
| LK (modifications not checked) [PhPr-Leu-ALys-CH═CH-COOCH2Ph] | 20500 | 2.51e+06 | 632 | – |
| AAN (modifications not checked) [Biotinyl-Ala-Ala-AAsn-CH═CH-COOEt] | – | – | – | 10 |
| LK (modifications not checked) [PhPr-Leu-ALys-CH═CH-CON(CH2Ph)2] | 20000 | 2.13e+06 | 65 | – |

Further lines, results first:

| k2 (Clostripain, P09870) [M⁻¹ s⁻¹] | k2 (Gingipain K) [M⁻¹ s⁻¹] | k2 (Gingipain R) [M⁻¹ s⁻¹] | IC50 [1] [nM] | Binder |
| --- | --- | --- | --- | --- |
| 2250 | 1.89e+06 | 214 | – | LK (modifications not checked) [PhPr-Leu-ALys-CH═CH-CON(CH2-1-naphthyl2] |
| – | 632000 | 18 | – | Hydrocinnamoyl-Ala-[AOrn]-{CH:CH‑COOEt} (reading uncertain) [PhPr-Ala-AOrn-CH═CH-COOEt] |
| – | – | – | 62 | Cbz-Ala-Ala-[AAsn]-{CH:CH‑CON(Bzl)‑1‑CH2‑Napth} [Cbz-Ala-Ala-AAsn-CH═CH-CON(Bzl)-1-CH2-Napth] |
| – | – | – | 38 | AAN (modifications not checked) [Cbz-Ala-Ala-AAsn-CH═CH-COOBzl] |
| – | – | – | 70 | AAN (modifications not checked) [Cbz-Ala-Ala-AAsn-CH═CH-CON(Bzl)Ph] |
| – | – | – | > 2000 | AAN (modifications not checked) [Cbz-Ala-Ala-AAsn-CH═CH-2-furyl] |
| – | – | – | 1000 | AAN (modifications not checked) [Cbz-Ala-Ala-AAsn-CH═CH-CO-Pip] |
| – | – | – | 60 | AAN (modifications not checked) [Cbz-Ala-Ala-AAsn-CH═CH-CON(CH3)Ph] |
| – | – | – | 1000 | AAN (modifications not checked) [Cbz-Ala-Ala-AAsn-CH═CH-CONHBzl] |
| – | – | – | 900 | AAN (modifications not checked) [Cbz-Ala-Ala-AAsn-CH═CH-CON(CH2-2-furyl)2] |
| – | – | – | 70 | AAN (modifications not checked) [Cbz-Ala-Ala-AAsn-CH═CH-CO-tetrahydroquinoline] |
| – | – | – | 200 | AAN (modifications not checked) [Cbz-Ala-Ala-AAsn-CH═CH-CO-tetrahydroisoquinoline] |
| – | – | – | 60 | AAN (modifications not checked) [Cbz-Ala-Ala-AAsn-CH═CH-CON(Bzl-4-F)Bzl] |
| 1050 | 236000 | 20 | – | LK (modifications not checked) [PhPr-Leu-ALys-CH═CH-CONHCH2Ph] |
| 474000 | – | 804000 | – | LR (modifications not checked) [PhPr-Leu-AArg-CH═CH-CON(CH2Ph)2] |
| – | 24700 | 71 | – | Hydrocinnamoyl-Leu-[AOrn]-{CH:CH‑CONHCH2Ph} (reading uncertain) [PhPr-Leu-AOrn-CH═CH-CONHCH2Ph] |
| – | – | – | 750 | AAN (modifications not checked) [Cbz-Ala-Ala-AAsn-CH═CH-CO-MePhe-N(CH3)CH2CH2Ph] |
| 13800 | 801000 | 75 | – | LK (modifications not checked) [PhPr-Leu-ALys-CH═CH-CON(Bzl)-p-CH2C6H4F] |
| – | – | – | 300 | AAN (modifications not checked) [Cbz-Ala-Ala-AAsn-CH═CH-CO-isoindoline] |
| – | – | – | 600 | AAN (modifications not checked) [Cbz-Ala-Ala-AAsn-CH═CH-CON(CH3)CH2CH2Ph] |
| 17500 | 811000 | 98 | – | LK (modifications not checked) [PhPr-Leu-ALys-CH═CH-CON(Bzl)CH2-2-naphthyl] |
| – | – | – | 55 | Cbz-Ala-Ala-[AAsn]-{CH:CH‑CON(CH3)Bzl} [Cbz-Ala-Ala-AAsn-CH═CH-CON(CH3)Bzl] |
| – | – | – | 800 | AAN (modifications not checked) [Cbz-Ala-Ala-AAsn-CH═CH-CONH-Bzl-4-F] |
| – | – | – | 700 | AAN (modifications not checked) [Cbz-Ala-Ala-AAsn-CH═CH-CONHPh] |
| 287000 | – | 555000 | – | LR (modifications not checked) [PhPr-Leu-AArg-CH═CH-CONHCH2Ph] |
| – | – | – | 70 | Cbz-Ala-Ala-[AAsn]-{CH:CH‑CON(Bzl)‑2‑CH2‑Napth} [Cbz-Ala-Ala-AAsn-CH═CH-CON(Bzl)-2-CH2-Napth] |
